{"source": "patent US5985836A", "about": "“Alpha-1 proteinase inhibitor binding peptides” (Bayer Corporation, priority 1998, dated 1999)", "key": {"A1PI [1]": {"target": "T1, A1PI (Homo sapiens, UniProt P01009)", "T1 construct": "Human plasma is currently the only approved source of therapeutic AlPI", "T1 sequence (P01009 25-418)": "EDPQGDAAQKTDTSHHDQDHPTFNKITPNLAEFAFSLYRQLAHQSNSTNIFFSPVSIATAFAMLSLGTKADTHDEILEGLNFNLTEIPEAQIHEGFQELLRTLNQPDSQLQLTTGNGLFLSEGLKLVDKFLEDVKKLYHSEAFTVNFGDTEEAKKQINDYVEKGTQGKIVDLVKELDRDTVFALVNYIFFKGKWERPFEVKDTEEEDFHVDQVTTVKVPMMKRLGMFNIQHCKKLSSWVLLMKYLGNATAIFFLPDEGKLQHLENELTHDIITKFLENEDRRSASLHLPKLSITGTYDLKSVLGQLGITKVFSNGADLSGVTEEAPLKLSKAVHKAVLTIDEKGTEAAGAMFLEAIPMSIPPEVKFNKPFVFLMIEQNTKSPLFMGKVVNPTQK", "test": "Purification of A1PI from Effluent II+III on peptide column, A1PI mass balance", "assay_type": "binding", "conditions": "A1PI, 1 ml Eff. II+III, 4° C.", "summary_of_the_method": "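Peptide-ligand columns were loaded with 1 ml Cohn Effluent II+III (20% v/v ethanol, 20-25 mg/ml hSA, ~1 mg/ml A1PI, other plasma proteins at 0.1-1 mg/ml) using a 10 min residence time at 4° C. Step elutions at 865 μl/min used 1M NaCl, 3M NaCl, then 2% acetic acid, and protein mass balances were tracked across fractions.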"}, "Immunoglobulin A (IgA)": {"test_system": "Immunoglobulin A (IgA)", "test": "Purification from Effluent II+III, IgA mass balance", "assay_type": "binding, human", "conditions": "1 ml Eff. II+III, 4° C.", "protocol": "(§1) Sequences 1-11 and 15 were assayed with Effluent II+III (Eff. II+III). Eff. II+III is a process intermediate in the Cohn plasma fractionation process. The feed stream contains 20% (by volume) ethanol, 20-25 mg/ml hSA and approximately 1 mg/ml AlPI. The stream also contains other proteins including anti-thrombin III (AT3), immunoglobin G (IgG), immunoglobin A (IgA), apolipoprotein alpha-1 (Apo A-1), transferrin (Trf), haptoglobin (Hpt), and alpha-1 acid glycoprotein (AAG) at concentrations ranging from 0.1-1 mg/ml.\n(§2) The columns were assayed using the same technique as the hSA+AlPI experiments, allowing for a 10 minute residence time followed by a constant flow rate of 865 μl/min with step elutions of 1M NaCl, 3M NaCl, and 2% acetic acid. All experiments were conducted at 4° C. The mass balances for the injection of 1 ml Eff. […] The AlPI was enriched from 3% of the total protein in the feed to upwards of 50% in the acid eluate."}, "Immunoglobulin G (IgG)": {"test_system": "Immunoglobulin G (IgG)", "test": "Purification from Effluent II+III, IgG mass balance", "assay_type": "binding, human", "conditions": "1 ml Eff. II+III, 4° C.", "protocol": "as §1, §2"}, "A1PI [2]": {"target": "T1, A1PI", "test": "A1PI purification from 5 mg hSA + 1 mg A1PI on peptide column, A1PI mass balance", "assay_type": "binding", "conditions": "A1PI, 5 mg hSA + 1 mg A1PI; for Mass Protein per Eluate Fraction, 1M NaCl / Mass Protein per Eluate Fraction, 2% Ac. Acid / Mass Protein per Eluate Fraction, Flow: * Below detection limit; for Percent Eluted by Fraction, 1M NaCl / Percent Eluted by Fraction, 2% Ac. Acid / Percent Eluted by Fraction, 3M NaCl / Percent Eluted by Fraction, Flow: relative to total eluted", "summary_of_the_method": "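Peptides on A-Totda-Toyopearl resin (0.1 mmole/g) in 0.4×5 cm columns; 5 mg hSA + 1 mg A1PI loaded at 4 °C or 20 °C with 10 min residence (17 μl/min). Steps of 1M and 3M NaCl, then 2% acetic acid; fractions quantified by immunonephelometry for mass balance.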"}, "A1PI [3]": {"target": "T1, A1PI", "test": "A1PI yield from dialyzed (aqueous) Effluent II+III", "assay_type": "binding", "conditions": "4° C.", "protocol": "Effluent II+III was dialyzed against equilibration buffer at 4° C. to remove the ethanol using a 15,000 molecular weight cut-off membrane. Nephelometry of the Eff. […] A portion of the identified sequences were assayed under the same conditions applied for neat Eff. II+III at 4° C. […] II+III compared to the neat, ethanol-containing feed. The binding strength differed for the aqueous feed as more AlPI eluted in 1M NaCl for the aqueous feed. The AlPI eluted in the 1M NaCl fractions was not as enriched as that eluted in the acid eluates."}, "[4]": {"target": "T2, apolipoprotein alpha-1 (Apo A-1) (Homo sapiens, UniProt P02647)", "T2 construct": "Eff; II+III is a process intermediate in the Cohn plasma fractionation process; tissue Bayer Corporation (Clayton, N.C.); host or cells: plasma fraction: Cohn Effluent II+III", "T2 sequence (P02647 19-267)": "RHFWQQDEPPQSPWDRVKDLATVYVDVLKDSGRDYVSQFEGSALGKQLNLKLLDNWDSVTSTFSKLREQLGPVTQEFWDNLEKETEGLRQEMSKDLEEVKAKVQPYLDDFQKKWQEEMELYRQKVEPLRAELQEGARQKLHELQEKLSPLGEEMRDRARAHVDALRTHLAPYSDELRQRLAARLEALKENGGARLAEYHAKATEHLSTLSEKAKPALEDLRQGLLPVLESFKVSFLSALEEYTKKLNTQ", "test": "Purification from Effluent II+III, Apo A-1 mass balance", "assay_type": "binding", "conditions": "1 ml Eff. II+III, 4° C.", "protocol": "as §1, §2"}, "A1PI [5]": {"target": "T1, A1PI", "test": "A1PI binding on peptide-resin column, injection of 1 mg A1PI in equilibration buffer", "conditions": "1 mg A1PI in equilibration buffer", "summary_of_the_method": "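Peptides synthesized on A-Totda-Toyopearl chelate resin (0.1 mmole/g) packed in 0.4×5 cm columns; 1 mg A1PI injected in equilibration buffer at 4 °C or 20 °C, 865 or 523 μl/min. Flowthrough, 1M/3M NaCl washes and 2% acetic acid eluate quantified by A280 or immunonephelometry as percent of total eluted.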"}, "A1PI [6]": {"target": "T1, A1PI", "test": "Capture and elution of active A1PI with 2M urea buffer (elastase inhibition activity assay and immunonephelometry)", "assay_type": "binding"}, "[7]": {"conditions": "* as in Tables 4, 5 (below detection limit)"}, "[8]": {"conditions": "1 ml dialyzed Eff. II+III (ethanol removed)"}, "[9]": {"conditions": "A1PI, 1 ml dialyzed Eff. II+III"}}, "note": "Ends that are not written are not given here.", "data": [{"substance": "IIWLYK", "values": [{"measurement": "Percent Eluted by Fraction, 1M NaCl", "setting": "A1PI [1]", "value": 0, "unit": "%"}, {"measurement": "Percent Eluted by Fraction, 2% Acetic Acid", "setting": "A1PI [1]", "value": 79, "unit": "%"}, {"measurement": "Percent Eluted by Fraction, 3M NaCl", "setting": "A1PI [1]", "value": 0, "unit": "%"}, {"measurement": "Percent Eluted by Fraction, Flow", "setting": "A1PI [1]", "value": 21, "unit": "%"}, {"measurement": "Mass Protein per Eluate Fraction, 2% Acetic Acid", "setting": "A1PI [1]; [7]", "value": 0.50, "unit": "mg"}, {"measurement": "Mass Protein per Eluate Fraction, Flow", "setting": "A1PI [1]; [7]", "value": 0.13, "unit": "mg"}, {"measurement": "Percent Eluted by Fraction, 1M NaCl", "setting": "Immunoglobulin A (IgA)", "value": 34, "unit": "%"}, {"measurement": "Percent Eluted by Fraction, 2% Acetic Acid", "setting": "Immunoglobulin A (IgA)", "value": 49, "unit": "%"}, {"measurement": "Percent Eluted by Fraction, 3M NaCl", "setting": "Immunoglobulin A (IgA)", "value": 0, "unit": "%"}, {"measurement": "Percent Eluted by Fraction, Flow", "setting": "Immunoglobulin A (IgA)", "value": 17, "unit": "%"}, {"measurement": "Mass Protein per Eluate Fraction, 1M NaCl", "setting": "Immunoglobulin A (IgA); [7]", "value": 0.12, "unit": "mg"}, {"measurement": "Mass Protein per Eluate Fraction, 2% Acetic Acid", "setting": "Immunoglobulin A (IgA); [7]", "value": 0.17, "unit": "mg"}, {"measurement": "Mass Protein per Eluate Fraction, Flow", "setting": "Immunoglobulin A (IgA); [7]", "value": 0.06, "unit": "mg"}, {"measurement": "Percent Eluted by Fraction, 1M NaCl", "setting": "Immunoglobulin G (IgG)", "value": 9, "unit": "%"}, {"measurement": "Percent Eluted by Fraction, 2% Acetic Acid", "setting": "Immunoglobulin G (IgG)", "value": 0, "unit": "%"}, {"measurement": "Percent Eluted by Fraction, 3M NaCl", "setting": "Immunoglobulin G (IgG)", "value": 0, "unit": "%"}, {"measurement": "Percent Eluted by Fraction, Flow", "setting": "Immunoglobulin G (IgG)", "value": 91, "unit": "%"}, {"measurement": "Mass Protein per Eluate Fraction, 1M NaCl", "setting": "Immunoglobulin G (IgG); [7]", "value": 0.02, "unit": "mg"}, {"measurement": "Mass Protein per Eluate Fraction, Flow", "setting": "Immunoglobulin G (IgG); [7]", "value": 0.23, "unit": "mg"}, {"measurement": "Mass Protein per Eluate Fraction, 1M NaCl", "setting": "A1PI [2]; 4° C.", "value": 0.10, "unit": "mg"}, {"measurement": "Mass Protein per Eluate Fraction, 2% Ac. Acid", "setting": "A1PI [2]; 4° C.", "value": 0.18, "unit": "mg"}, {"measurement": "Mass Protein per Eluate Fraction, Flow", "setting": "A1PI [2]; 4° C.", "value": 0.52, "unit": "mg"}, {"measurement": "Percent Eluted by Fraction, 1M NaCl", "setting": "A1PI [2]; 4° C.", "value": 13, "unit": "%"}, {"measurement": "Percent Eluted by Fraction, 2% Ac. Acid", "setting": "A1PI [2]; 4° C.", "value": 23, "unit": "%"}, {"measurement": "Percent Eluted by Fraction, 3M NaCl", "setting": "A1PI [2]; 4° C.", "value": 0, "unit": "%"}, {"measurement": "Percent Eluted by Fraction, Flow", "setting": "A1PI [2]; 4° C.", "value": 65, "unit": "%"}, {"measurement": "Mass Protein per Eluate Fraction, 1M NaCl", "setting": "A1PI [2]; 20° C.", "value": 0.07, "unit": "mg"}, {"measurement": "Mass Protein per Eluate Fraction, 2% Ac. Acid", "setting": "A1PI [2]; 20° C.", "value": 0.47, "unit": "mg"}, {"measurement": "Mass Protein per Eluate Fraction, Flow", "setting": "A1PI [2]; 20° C.", "value": 0.26, "unit": "mg"}, {"measurement": "Percent Eluted by Fraction, 1M NaCl", "setting": "A1PI [2]; 20° C.", "value": 9, "unit": "%"}, {"measurement": "Percent Eluted by Fraction, 2% Ac. Acid", "setting": "A1PI [2]; 20° C.", "value": 58, "unit": "%"}, {"measurement": "Percent Eluted by Fraction, 3M NaCl", "setting": "A1PI [2]; 20° C.", "value": 0, "unit": "%"}, {"measurement": "Percent Eluted by Fraction, Flow", "setting": "A1PI [2]; 20° C.", "value": 33, "unit": "%"}, {"measurement": "Mass A1PI per Eluate Fraction, 1M NaCl", "setting": "A1PI [3]; [8]", "value": 0.05, "unit": "mg"}, {"measurement": "Mass A1PI per Eluate Fraction, 2% Acetic Acid", "setting": "A1PI [3]; [8]", "value": 0.38, "unit": "mg"}, {"measurement": "Mass A1PI per Eluate Fraction, Flowthrough", "setting": "A1PI [3]; [8]", "value": 0.19, "unit": "mg"}, {"measurement": "Percent Eluted by Fraction, 1M NaCl", "setting": "A1PI [3]; [9]", "value": 9, "unit": "%"}, {"measurement": "Percent Eluted by Fraction, 2% Acetic Acid", "setting": "A1PI [3]; [9]", "value": 60, "unit": "%"}, {"measurement": "Percent Eluted by Fraction, Flowthrough", "setting": "A1PI [3]; [9]", "value": 31, "unit": "%"}, {"measurement": "Percent Eluted by Fraction, 1M NaCl", "setting": "[4]", "value": 0, "unit": "%"}, {"measurement": "Percent Eluted by Fraction, 2% Acetic Acid", "setting": "[4]", "value": 100, "unit": "%"}, {"measurement": "Percent Eluted by Fraction, 3M NaCl", "setting": "[4]", "value": 0, "unit": "%"}, {"measurement": "Percent Eluted by Fraction, Flow", "setting": "[4]", "value": 0, "unit": "%"}, {"measurement": "Mass Protein per Eluate Fraction, 2% Acetic Acid", "setting": "[4]; [7]", "value": 0.43, "unit": "mg"}, {"measurement": "Percent A1PI Eluted by Fraction Based on Absorbance at 280 nm, 1M NaCl", "setting": "A1PI [5]; 4° C.", "value": 52, "unit": "%"}, {"measurement": "Percent A1PI Eluted by Fraction Based on Absorbance at 280 nm, 2% Acetic Acid", "setting": "A1PI [5]; 4° C.", "value": 48, "unit": "%"}, {"measurement": "Percent A1PI Eluted by Fraction Based on Absorbance at 280 nm, Flowthrough", "setting": "A1PI [5]; 4° C.", "value": 0, "unit": "%"}, {"measurement": "Percent A1PI Eluted by Fraction, 1M NaCl", "setting": "A1PI [5]; 20° C.", "value": 17, "unit": "%"}, {"measurement": "Percent A1PI Eluted by Fraction, 2% Acetic Acid", "setting": "A1PI [5]; 20° C.", "value": 55, "unit": "%"}, {"measurement": "Percent A1PI Eluted by Fraction, Flowthrough", "setting": "A1PI [5]; 20° C.", "value": 28, "unit": "%"}]}, {"substance": "Neat A1PI: freshly dissolved human alpha-1 proteinase inhibitor fed to the columns", "values": [{"measurement": "Mass A1PI in Urea Eluate (mg), Activity", "setting": "A1PI [6]; 1 mg A1PI, 4° C., eluted with 2M urea, pH 6, elastase inhibition activity assay", "value": 0.87, "unit": "mg"}, {"measurement": "Mass A1PI in Urea Eluate (mg), Nephelometry", "setting": "A1PI [6]; 1 mg A1PI, 4° C., eluted with 2M urea, pH 6, immunonephelometry", "value": 1.10, "unit": "mg"}, {"measurement": "Specific Activity", "setting": "A1PI [6]; activity assay mass relative to immunonephelometry mass", "value": 0.79, "unit": "mg/mg"}, {"measurement": "Specific Activity", "setting": "A1PI [6]; mass of A1PI by activity assay relative to immunonephelometry, urea eluate, 4° C.", "value": 0.79, "unit": "mg/mg"}]}]}
